The data set deals with the molecule itself. Put plainly: native gel or EMSA; purified His-GSAATAt (300 µM), no pretreatment, non-reducing/non-denaturing polyacrylamide gel; dimer to monomers.

B1: recombinant His-tagged Arabidopsis glutamate-1-semialdehyde aminotransferase 1, wild type (enzyme)
chain: not shown
notes: Arabidopsis thaliana GSAAT1 (AtGSA1, AT5G63570), mature protein without the transit peptide 1-38 according to UniProt P42799; pET-28a(+); the methods remove 1-38; also called His-GSAAT; His-GSAATAt; source: E. coli Rosetta, purified (Ni-NTA); not shown: His6, N-terminal, kept
With B1, the “stoichiometry N” value was found to be 2.

For the origin of these results see PMC12678314, “Redox regulation of glutamate-1-semialdehyde aminotransferase modulates the synthesis of 5-aminolevulinic acid in Arabidopsis” (Frontiers in Plant Science, 2025).
